Measured values reported in article PMC8365315 (EBioMedicine, 2021).

Molecular target: exportin 4 (XPO4) (UniProt Q9C0E2 1-1151)
Assay: SPR

Chain of exportin 4 (XPO4) (Q9C0E2 whole entry): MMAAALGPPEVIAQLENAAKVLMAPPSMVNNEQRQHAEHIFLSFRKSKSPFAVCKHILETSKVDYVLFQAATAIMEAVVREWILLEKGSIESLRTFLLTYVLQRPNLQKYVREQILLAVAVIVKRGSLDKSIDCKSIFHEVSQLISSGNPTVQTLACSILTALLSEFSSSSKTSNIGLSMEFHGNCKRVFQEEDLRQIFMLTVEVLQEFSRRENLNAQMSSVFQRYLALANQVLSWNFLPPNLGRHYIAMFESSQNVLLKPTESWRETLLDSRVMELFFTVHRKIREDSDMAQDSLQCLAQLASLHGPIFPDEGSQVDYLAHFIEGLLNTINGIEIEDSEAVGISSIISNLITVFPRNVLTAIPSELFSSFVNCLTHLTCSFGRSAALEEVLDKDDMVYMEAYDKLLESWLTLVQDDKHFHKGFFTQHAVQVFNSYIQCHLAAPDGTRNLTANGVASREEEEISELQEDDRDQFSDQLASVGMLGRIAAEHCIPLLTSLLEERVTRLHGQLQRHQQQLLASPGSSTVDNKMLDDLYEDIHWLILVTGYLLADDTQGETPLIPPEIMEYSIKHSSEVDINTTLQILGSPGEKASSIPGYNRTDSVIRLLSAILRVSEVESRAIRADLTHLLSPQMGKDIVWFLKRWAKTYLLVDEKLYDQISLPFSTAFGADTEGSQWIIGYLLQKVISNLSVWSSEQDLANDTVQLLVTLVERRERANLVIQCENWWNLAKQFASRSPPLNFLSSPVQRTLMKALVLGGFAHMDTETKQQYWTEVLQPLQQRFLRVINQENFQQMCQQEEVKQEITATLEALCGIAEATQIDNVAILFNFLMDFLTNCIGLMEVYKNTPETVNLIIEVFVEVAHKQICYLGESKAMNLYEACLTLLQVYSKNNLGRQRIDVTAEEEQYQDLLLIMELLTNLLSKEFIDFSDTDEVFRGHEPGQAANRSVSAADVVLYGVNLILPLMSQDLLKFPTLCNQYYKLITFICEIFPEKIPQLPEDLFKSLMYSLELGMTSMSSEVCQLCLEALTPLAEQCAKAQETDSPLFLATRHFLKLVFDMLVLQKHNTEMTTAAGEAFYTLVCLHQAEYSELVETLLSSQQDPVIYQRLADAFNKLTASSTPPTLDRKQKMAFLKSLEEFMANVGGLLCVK

B1: SMAD3 (natural protein, UniProt P84022 1-425, looked up)
chain: MSSILPFTPPIVKRLLGWKKGEQNGQEEKWCEKAVKSLVKKLKKTGQLDELEKAITTQNVNTKCITIPRSLDGRLQVSHRKGLPHVIYCRLWRWPDLHSHHELRAMELCEFAFNMKKDEVCVNPYHYQRVETPVLPPVLVPRHTEIPAEFPPLDDYSHSIPENTNFPAGIEPQSNIPETPPPGYLSEDGETSDHQMNHSMDAGSPNLSPNPMSPAHNNLDLQPVTYCEPAFWCSISYYELNQRVGETFHASQPSMTVDGFTDPSNSERFCLGLLSNVNRNAAVELTRRHIGRGVRLYYIGGEVFAECLSDSAIFVQSPNCNQRYGWHPATVCKIPPGCNLKIFNNQEFAALLAQSVNQGFEAVYQLTRMCTIRMSFVKGWGAEYRRQTVTSTPCWIELHLNGPLQWLDKVLTQMGSPSIRCSSVS
B1 was tested, and the Kd was 4.88 nM.
